Measured values taken from US10508147B2, “Anti-nodal antibodies and methods of using same” (ANN AND ROBERT H. LURIE CHILDREN'S HOSPITAL OF CHICAGO, priority 2014, dated 2019).

Legend:
[1] = biological target: T1, recombinant Nodal (Homo sapiens, UniProt Q96S42); assay: Sandwich ELISA to detect Nodal with 3D1 as capture antibody; set-up: E. coli derived His238 Leu347, with an N-terminal Met; purchased R&D Systems; details: rabbit monoclonal anti-Nodal for detection
T1 sequence (Q96S42 238-347): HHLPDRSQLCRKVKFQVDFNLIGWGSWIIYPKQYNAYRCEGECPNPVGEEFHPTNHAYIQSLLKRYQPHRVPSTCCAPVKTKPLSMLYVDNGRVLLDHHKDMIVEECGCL
From the text: A typical calibration curve was obtained using a sandwich ELISA assay developed to detect Nodal (detection limit 50 pg/well) (See FIG. 22). The assay used monoclonal anti-Nodal antibody (designated 3D1) to coat an ELISA dish to capture rNodal (recombinant Nodal) from solutions with different concentrations of rNodal and a second, rabbit monoclonal anti-Nodal antibody to detect the captured rNodal. The resulting captured rNodal-antibody complex was then detected with an anti-rabbit antibody conjugated to horseradish peroxidase and a QuantaRed enhanced chemifluorescent horseradish peroxidase substrate.
By epitope mapping of commercially available Nodal antibodies and 3D1 mAb, the latter was chosen as the capture antibody for coating ELISA dishes, while a rabbit monoclonal anti-Nodal (Abcam) served for detecting the bound Nodal. The immune complex was subsequently quantified using a horseradish peroxidase-conjugated anti-rabbit antibody in conjunction with QuantaRed enhanced chemifluorescent horseradish peroxidase substrate (ThermoFisher). The established sandwich ELISA assay detects Nodal as a recombinant protein in conditioned media from human embryonic stem cells and in biological fluids with a detection limit (calculated using recombinant Nodal) of […]. Human serum samples from breast cancer patients were purchased from BioOptions (Brea, Calif.).

[2] = biological target: T2, endogenous Nodal protein (Homo sapiens, UniProt Q96S42); assay: Western blot detection of endogenous Nodal in human melanoma cell lysates with 3D1; format: binding; details: 3D1 at 2 μg/mL; panel of human melanoma cell lines and HEK-293
T2 construct: recognize the endogenous forms of Nodal protein in human melanoma cells; endogenous in cells; host or cells: human melanoma lines PES, A-375, SK-MEL, WM 266, LCM (blot)
T2 sequence (Q96S42 238-347): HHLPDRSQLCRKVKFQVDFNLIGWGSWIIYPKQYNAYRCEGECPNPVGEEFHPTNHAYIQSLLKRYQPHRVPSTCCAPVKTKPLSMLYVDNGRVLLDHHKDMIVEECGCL
Description: Western blot analyses for the detection of endogenous Nodal protein were performed using the following human skin malignant melanoma cell lines: PES, A-375, SK-MEL, WM 266 and LCM. HEK-293 (human embryonic kidney) cells and 100 ng of rhNodal protein were used as positive controls. Cells were lysed performing three freeze/thaw cycles in 50 mM Tris-HCl pH 7.5, 500 mM NaCl, 1% NP-40, 10 mM EDTA, 1 mM MgCl2, 1 mM CaCl2, 10% Glycerol, with an added cocktail of protease inhibitors and PMSF (phenyl-methanesulfonylfluoride). Cell lysates were cleared by centrifugation at 12,000 rpm for 20 min at 4° C. and the supernatants were quantified by Bradford assay. 50 μg of cell lysate from each sample were applied to a 15% SDS-PAGE gel under reducing conditions and electrophoresed for 3 h at 80 V. Separated proteins were transferred onto a polyvinylidene difluoride (PVDF) membrane (Millipore), previously soaked in methanol 100% for 5 min. […] The target protein was detected using the enhanced chemi-luminescent substrate method with the SuperSignal West Pico kit provided by Pierce Chemical Co. following the manufacturer's instructions. Signals were acquired with the ChemiDoc XRS video densitometer using the Quantity One software.

detection limit for Nodal [1]: 50 pg/well
detection limit for Nodal ([1]; listed as 3D1 mAb): 75 pg/well
B1: 3D1: mouse monoclonal anti-Nodal antibody raised against hNodal(44-67); light chain SEQ ID NO:1, heavy chains SEQ ID NO:2 and 3 (protein)
light: DIKMTQSPASLSASVGETVTITCRASGNIHNYLAWYQQKQGKSPQLLVYNAKTLADGVPSRFSGSGSGTQYSLKINSLQPEDFGSYYCQHFWSTPHVRCWDQAGTETEAW
heavy 1: VKLVESGGGLVKPGGSLKLSCAASGFTFSSYAMSWVRQTPEKRLEWVASISSGGCTYYPDSVKGRFTISRDNARNILYLQMSSLRSEDTAMYYCARGSMITADGNSLLLCYGLLGSRNLXHR
heavy 2: VKLVESGGGLVQPGGSMKLSCVASGFTFRNYWMSWVRQSPEKGLEWVAEIRLKSDNYAARYAESVKGKFTISRDDSKSRLYLQMNSLRAEDTGIYYCTGIRRFAYWGQGTL
modifications: not fully specified; (120)..(120) Xaa can be any naturally occurring amino acid
staining of endogenous Nodal forms in Western blot [2]: able to stain the immature form pro-Nodal
